Strand notation (5' to 3'): a small letter for the sugar, then the base; units joined by * are phosphorothioate-linked, units joined directly phosphodiester-linked; [ ] holds rarer units or linkages, { } end groups; capitals alone tell only the bases. m = 2'-O-methyl; r = 2'-OH (RNA)
System: TTR
Assay: TTR editing in primary cyno hepatocytes treated with LNP formulated Spy Cas9 mRNA (SEQ ID NO: 2) and sgRNAs, 12.5 ng mRNA
Format: cell-based, cynomolgus monkey
Details: LNP formulated Spy Cas9 mRNA (SEQ ID NO: 2) and cyno matched sgRNA, lysed 72 hours post treatment
Method: Primary liver hepatocytes. Primary human liver hepatocytes (PHH) and primary cynomolgus liver hepatocytes (PCH) (Gibco) were cultured per the manufacturer's protocol (Invitrogen, protocol 11.28.2012). In brief, the cells were thawed and resuspended in hepatocyte thawing medium with supplements (Gibco, Cat. CM7000) followed by centrifugation at 100 g for 10 minutes for human and 80 g for 4 minutes for cyno. The supernatant was discarded and the pelleted cells resuspended in hepatocyte plating medium plus supplement pack (Invitrogen, Cat. A1217601 and CM3000). Cells were counted and plated on Bio-coat collagen I coated 96-well plates (ThermoFisher, Cat. 877272) at a density of 33,000 cells/well for human or 60,000 cells/well for cyno (or 65,000 cells/well when assaying effects on TTR protein, described further below). Plated cells were allowed to settle and adhere for 6 or 24 hours in a tissue culture incubator at 37° C. and 5% CO2 atmosphere. After incubation cells were checked for monolayer formation and media was replaced with hepatocyte culture medium with serum-free supplement pack (Invitrogen, Cat. A1217601 and CM4000).
In general, the lipid nanoparticle components were dissolved in 100% ethanol with the lipid component of various molar ratios. The RNA cargos were dissolved in 25 mM citrate, 100 mM NaCl, pH 5.0, resulting in a concentration of RNA cargo of approximately 0.45 mg/mL. The LNPs were formulated with a lipid amine to RNA phosphate (N:P) molar ratio of about 4.5 or about 6, with the ratio of mRNA to gRNA at 1:1 by weight.
The LNPs were formed by microfluidic mixing of the lipid and RNA solutions using a Precision Nanosystems NanoAssemblr™ Benchtop Instrument, according to the manufacturer's protocol. A 2:1 ratio of aqueous to organic solvent was maintained during mixing using differential flow rates. […]
Additional PCR was performed per the manufacturer's protocols (Illumina) to add chemistry for sequencing. […] The reads were aligned to a reference genome (e.g., the human reference genome (hg38), the cynomologus reference genome (mf5), the rat reference genome (rn6), or the mouse reference genome (mm10)) after eliminating those having low quality scores. The resulting files containing the reads were mapped to the reference genome (BAM files), where reads that overlapped the target region of interest were selected and the number of wild type reads versus the number of reads which contain an insertion, substitution, or deletion was calculated.
The editing percentage (e.g., the “editing efficiency” or “percent editing” or “indel frequency”) is defined as the total number of sequence reads with insertions/deletions (“indels”) or substitutions over the total number of sequence reads, including wild type. […]

B1: G000502: TTR Cyno specific sgRNA modified sequence, SEQ ID NO: 114; guide sequence of CR000689; cross homologous between mouse and cyno (nucleic acid)
guide: mA*mC*mA*rCrArArArUrArCrCrArGrUrCrCrArGrCrGrGrUrUrUrUrArGrAmGmCmUmAmGmAmAmAmUmAmGmCrArArGrUrUrArArArArUrArArGrGrCrUrArGrUrCrCrGrUrUrArUrCrAmAmCmUmUmGmAmAmAmAmAmGmUmGmGmCmAmCmCmGmAmGmUmCmGmGmUmGmCmU*mU*mU*mU
12.5 ng mRNA, 3.9 nM sgRNA, Avg % Edit: 80.70%
